Data: article PMC11890623, “Pseudomonas aeruginosa acyl-CoA dehydrogenases and structure-guided inversion of their substrate specificity” (Nature Communications, 2025)

Tests used:
Experiment in all cases: Michaelis-Menten kinetics of purified enzyme (KM)
Format in all cases: biochemical, Pseudomonas aeruginosa
Conditions in all cases: FAD
[1] = substrate: CCCC(=O)SCCNC(=O)CCNC(=O)[C@H](O)C(C)(C)COP(=O)(O)OP(=O)(O)OC[C@H]1O[C@@H](n2cnc3c(N)ncnc32)[C@H](O)[C@@H]1OP(=O)(O)O
[2] = substrate: CCCCCC(=O)SCCNC(=O)CCNC(=O)[C@H](O)C(C)(C)COP(=O)(O)OP(=O)(O)OC[C@H]1O[C@@H](n2cnc3c(N)ncnc32)[C@H](O)[C@@H]1OP(=O)(O)O
[3] = substrate: CCCCCCCC(=O)SCCNC(=O)CCNC(=O)[C@H](O)C(C)(C)COP(=O)(O)OP(=O)(O)OC[C@H]1O[C@@H](n2cnc3c(N)ncnc32)[C@H](O)[C@@H]1OP(=O)(O)O

B1: FadE2 (Pseudomonas aeruginosa PAO1) (protein)
chain: MADYKAPLRDMRFVLNEVFEVSRLWAQLPALAEVVDAETAAAILEEAGKVTAGTIAPLNRPGDEEGCQWNAGAVSTPAGFPEAYRTYAEGGWVGVGGDPAYGGMGMPKVISAQVEELVNSANLSFGLYPMLTAGACLALNAHASDELKDKYLPNMYAGIWAGSMCLTEPHAGTDLGIIRTRAEPQADGSYKISGTKIFITGGEHDLTENIIHLVLAKLPDAPAGPKGISLFLVPKVLVNADGSLGEKNSLGCGSIEHKMGIKASATCVMNFDGATGWLVGEVNKGLAAMFTMMNYERLGVGIQGLATGERSYQSAIEYARERIQSRAPTGPVAKDKAADPIIVHPDVRRMLLTMKALNEGGRAFSSYVAMQLDTAKYSEDAVTRKRAEELVALLTPVAKAFLTDMGLETTIHGQQIFGGHGFIREWGQEQLVRDCRITQIYEGTNGIQALDLVGRKVIGSGGAFSRHFTDEIKAFVASADEALGEFSKPLAAAVENLEELTAWLLDRAKGNPNEIGAASVEYLHVFGYTAYAYMWALMARTALAKQGEDDFYASKLGTARFYFARLLPRIHSLSASVRAGSESLYLLDAEQF
notes: full-length ORF, His6 tag removed by TEV
Km [1]: 10.35 ± 1.06 µM
Km [2]: 14.6 ± 1.43 µM
Km [3]: 21.59 ± 1.23 µM
